In this experiment the target is HLA-B*57:01–T3N (human | not stated | HIV-1). The experiment can be described thus: SPR. Background: Surface plasmon resonance follows binding to a sensor surface in real time, without labels.

“KIR3DL1*001 (similar construct, from insect cells) (from UniProt P43629 22-444) (receptor)” yielded an equilibrium dissociation constant (Kd) of 100 µM.

What is called Kd is the concentration at which binding is half-saturated. Low values mean a tighter complex, high ones a looser complex.

For the origin of these results see publication PMC7900914.
